The assay addresses HLA-DRβ1*13 (human). Nature of the assay: cell-based or functional assay.

As for KQIINMWQEIGKAMYA [Peptide 53], the “proliferation of KT9 cells” value was at most 2 fold.

The values above are taken from US20090214583A1 (GOVERNMENT OF THE UNITED STATES OF AMERICA AS REPRESENTED …, published 2009).
